Results taken from patent US20250197490A1, “ANTI-CORTICOTROPIN-RELEASING HORMONE ANTIBODIES AND USE IN CONGENITAL ADRENAL HYPERPLASIA” (HBM ALPHA THERAPEUTICS, INC., priority 2021, published 2025).
“Also recorded” adds a separate entry of the source.

T1: human UCN1 (Homo sapiens, UniProt P55089)
T1 sequence (P55089 83-122 limits assumed): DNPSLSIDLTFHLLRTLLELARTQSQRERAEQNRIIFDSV


Legend:
Mrap1 KO mice = Mrap1 KO mice constitutively high ACTH model; type: in vivo, mouse; conditions: for plasma ACTH concentration in Mrap1 KO mice: single dose of mAb 20 mg/kg
human UCN1 = target: T1, human UCN1; assay: Human UCN1 ELISA binding; conditions: in words
Experimental: Streptavidin (Thermo, Cat: 21125) was diluted in PBS to a concentration of 2 μg/ml. 100 μl of diluted streptavidin was added per well to ELISA microplates, and the plates were incubated overnight at 4° C. Plates were blocked with ELISA blocking solution (containing 2% w/v BSA, 0.05% (v/v) Tween-20, pH 7.4 PBS buffer) at 37° C. for 1 hour, and then incubated with 0.5 μg/mL CRH (NT biotin), 0.5 μg/mL CRH (CT biotin), 1 μg/mL human UCN1 (NT biotin), or 1 μg/mL human UCN1 (CT biotin) for 1 hour at 37° C. Plates were then washed and incubated with diluted anti-CRH antibody (Ab) at 15 μg/ml (100 nM, 10 diluted, 8 points) for 1 hour at 37° C. Subsequently, plates were washed and incubated with HRP-conjugated goat anti-human IgG (H+L) antibody (Jackson, Cat: 109-035-088) at 37° C. for 1 hour. […] 100 μL of ELISA stopping solution (Solarbio, Cat #: C1058) was added to terminate the reaction, and the optical density at 450 nm (OD450 nm) was determined by an ELISA plate reader (Molecular Devices, Spectra max 384 plus).
Streptavidin (Thermo, Cat: 21125) was diluted in PBS with a concentration of 2 μg/mL. […] 100 μL of ELISA stopping solution (Solarbio, Cat #: C1058) was then added to terminate the reaction, and the OD450 nm was determined by an ELISA plate reader (Molecular Devices, Spectra max 384 plus).

[1] = tested on: wildtype female C57BL/6 mice; assay: Wildtype mice restraint-stress model (ACTH and corticosterone); type: in vivo, mouse
Experimental: 8-10 week old wildtype female C57BL/6 mice were obtained from Charles River Laboratories. Mrap1 KO mice were obtained from Queen Mary University of London, UK. SSR125543A, a small molecule CRHR1 antagonist, was obtained from Axon Medchem (Cat #Axon 1799). Mouse Corticosterone (55-Corms-E01) and adrenocorticotropic hormone (ACTH) ELISA kits (21-ACTHU-E01) were obtained from ALPCO, USA. All procedures were carried out in accordance with the Guide for the Care and Use of Laboratory Animals of the National Institutes of Health. Protocols were approved by Charles River Laboratories Institutional Animal Care and Use Committee (IACUC).
To determine the effect of nonpainful physical restraint upon stress responses, mice were restrained in 50 ml polypropylene ventilated tubes in which the tip was cut off with a razor blade to allow the mouse to breathe easily for 15-20 minutes. A mouse was directed to the open tube and crawled in. A piece of paper towel was put behind the mouse so that it could not back out, and the cap was screwed on. The mouse was placed back in its cage, ventral size down on the bedding. This stressor is not considered painful, as mice are confined to a limited space (in a ventilated restraint tube) but not in an unnatural physical position. The investigator was present in the room during the entire procedure. At the end of the procedure, the mouse was removed by the tail.
On day 1, each mouse was injected intraperitoneally with 20 mg/kg of anti-CRH mAbs, hIgG1 or PBS (5 mice per group). On day 2 or 3, and 14 each mouse was subjected to physical restraint-stress described above for 15 or 20 min. Immediately after restraint-stress, 200 μl of blood was collected in EDTA tubes from the submandibular vein of each mouse. Plasma was separated using a refrigerated centrifuge (4° C. at 500×g for 10 min) and snap-frozen in dry ice for subsequent ACTH and corticosterone ELISA measurement.
On day 1, one half of mice were injected IP with 20 mg/kg of anti-CRH Ab or hIgG1 (5 mice per group). […]

Molecule	plasma ACTH concentration in Mrap1 KO mice (Mrap1 KO mice)	binding to human UCN1 peptides in ELISA (human UCN1)	duration of the effects of the mAb ([1]; wildtype mice restraint model)	extent of inhibition of ACTH and corticosterone versus SSR125543A ([1]; wildtype mice restraint model, SSR125543A 30 mg/kg)	efficacy versus SSR125543A in reducing plasma ACTH and corticosterone levels ([1]; wildtype mice restraint stress, mAb 20 mg/kg and 5 mg/kg, SSR125543A 30 mg/kg)	efficacy versus SSR125543A in reducing plasma ACTH levels (Mrap1 KO mice; Mrap1 KO mice, PR302064 20 mg/kg, PR302334-24 20, 10 and 5 mg/kg, SSR125543A 30 mg/kg)	extent of inhibition of ACTH versus SSR125543A (Mrap1 KO mice; Mrap1 KO mice, SSR125543A 30 mg/kg)	plasma ACTH concentrations in Mrap1 KO mice, dose dependent (Mrap1 KO mice; 20 mg/kg and 5 mg/kg, day 2 and day 16)
PR302334-26: Series 9 humanized variant of PR302334; VH SEQ ID NO: 277, VL SEQ ID NO: 328 (antibody, V domains shown, PR302334-18 VH, PR302334-26 VH, PR302334-27 VH; PR302334-10 VL, PR302334-24 VL, PR302334-26 VL, PR302334-4 VL) VH: EVQLVESGGGLVQPGGSLRLSCAASGFTFSTYAMSWVRQAPGKGLEWVASIRSGGTTYYPDSVKGRFTISRDNSKNSLYLQMNSLRAEDTAVYYCTRGIDWGQGTTVTVSS VL: DIVMTQSPDSLAVSLGERATINCKASQSVNNDVAWYQQKPGQPPRLLIYYASNRYTGVPDRFSGSGSGTDFTLTISSLQAEDLAVYFCQQDYSSWTFGGGTKVEIK	markedly reduced	except for PR302334-26, bound to human UCN1 peptides	–	–	–	–	–	–
PR302334-24: humanized variant of PR302334; VH SEQ ID NO: 275, VL SEQ ID NO: 328 (antibody, V domains shown, PR302334-16 VH, PR302334-24 VH, PR302334-25 VH; PR302334-10 VL, PR302334-24 VL, PR302334-26 VL, PR302334-4 VL) VH: EVQLVESGGGLVKPGGSLRLSCAASGFTFSTYAMSWVRQAPGKGLEWVASIRSGGTTYYPDSVKGRFTISRDNAKNSLYLQMNSLRAEDTAVYYCTRGIDWGQGTTVTVSS VL: DIVMTQSPDSLAVSLGERATINCKASQSVNNDVAWYQQKPGQPPRLLIYYASNRYTGVPDRFSGSGSGTDFTLTISSLQAEDLAVYFCQQDYSSWTFGGGTKVEIK	significantly reduced	–	at least 17 days	more complete inhibition	more efficacious; also recorded: superior efficacy	more efficacious; also recorded: superior efficacy	more complete inhibition	–
PR302038: humanized variant of PR301777; VH SEQ ID NO: 256, VL SEQ ID NO: 311 (antibody, V domains shown, PR302036 VH, PR302038 VH, PR302041 VH; PR302031 VL, PR302038 VL, PR302045 VL, PR302052 VL, PR302066 VL) VH: EMQLVESGGGLVQPGGSLRLSCAASGFTFSNYWMNWVRQAPGKGLEWVAEIRLKSNNYATHYAESVKGRFTISRDDSKSSVYLQMNSLKTEDTAVYYCTVGTLVYWGQGTLVTVSS VL: EIVLTQSPATLSLSPGERATLSCRASQSVSTSTYNYMHWFQQKPGQAPRLLIKFASNLESGIPARFSGSGSGTDFTLTISSLEPEDTAVYYCQHSWEIPYTFGQGTKLEIK	–	–	–	–	–	–	–	reduced
